Laboratory results taken from patent US20050069530A1.

Legend:
Test in all cases: cell-based or functional assay
[1] = target: T1, human type IIA sPLA2 (human), P14555
T1 chain: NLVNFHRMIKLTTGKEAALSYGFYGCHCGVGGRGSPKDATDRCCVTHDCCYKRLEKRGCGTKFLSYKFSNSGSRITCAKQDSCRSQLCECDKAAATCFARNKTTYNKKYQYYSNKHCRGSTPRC

[2] = target: T2, human recombinant cytosolic PLA2 (cPLA2) (human), P47712
T2 chain: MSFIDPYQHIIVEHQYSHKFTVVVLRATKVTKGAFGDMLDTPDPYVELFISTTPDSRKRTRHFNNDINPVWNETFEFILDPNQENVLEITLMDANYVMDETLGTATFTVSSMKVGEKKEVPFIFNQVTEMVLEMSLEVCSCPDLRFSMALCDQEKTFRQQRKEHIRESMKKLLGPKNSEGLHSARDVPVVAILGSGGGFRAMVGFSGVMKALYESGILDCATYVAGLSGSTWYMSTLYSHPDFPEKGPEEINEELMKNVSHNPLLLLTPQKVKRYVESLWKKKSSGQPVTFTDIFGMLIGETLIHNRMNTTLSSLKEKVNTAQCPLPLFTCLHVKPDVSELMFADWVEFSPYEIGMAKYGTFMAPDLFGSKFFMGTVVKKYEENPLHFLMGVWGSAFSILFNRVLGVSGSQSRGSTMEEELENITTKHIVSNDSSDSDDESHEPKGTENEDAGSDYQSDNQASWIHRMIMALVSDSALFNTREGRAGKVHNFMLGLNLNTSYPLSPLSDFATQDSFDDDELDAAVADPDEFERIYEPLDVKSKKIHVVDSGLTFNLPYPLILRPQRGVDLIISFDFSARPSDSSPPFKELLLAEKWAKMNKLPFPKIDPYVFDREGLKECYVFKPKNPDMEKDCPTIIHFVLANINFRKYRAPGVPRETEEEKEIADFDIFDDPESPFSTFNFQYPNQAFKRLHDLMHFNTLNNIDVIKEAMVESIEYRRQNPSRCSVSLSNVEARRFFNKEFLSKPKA

crotoxin B, P62022 = target: crotoxin B, P62022

B1: P-NT.II (peptide)
peptide: LGRVDIHVWDGVYIRGR
modifications: not checked
- IC50 of sPLA2 enzyme inhibition (3H-labelled E. coli membranes as substrate) [1]: 5.3 µM
- selectivity of enzyme inhibition, sPLA2 over cPLA2 [2]: 5 fold
- IC50 of PLA2 enzyme inhibition (labeled E. coli membrane assay) (crotoxin B, P62022): 4.9 µM

B2: Scrambled P-NT.II (peptide)
peptide: YRRVDIGLRVWHDLGVG
modifications: not checked
- IC50 of PLA2 enzyme inhibition (labeled E. coli membrane assay) (crotoxin B, P62022): > 250 µM
